In patent US20160159924A1 (Novo Nordisk, published 2016):

These binders were tested against T1, recombinant human sc-uPA (human, UniProt P00749 21-431) (assay: SPR, mAb immobilised).
T1 construct: 411 amino acid single-chain zymogen expressed in HEK293; the 20-residue signal peptide is not present in the mature protein; also called human single-chain uPA; pro-uPA
Experimental: The binding affinity to recombinant human sc-uPA protein (SEQ ID NO:1) was measured by surface plasmon resonance (SPR).
The experiments were performed on a Biacore™ instrument (GE Healthcare) and analysed with the BIAcore 4000 Evaluation Software. Anti-human uPA mAb variants were directly immobilized at 150-600 RU on flow cells of a CM5 sensor chip (GE Healthcare; cat. # BR-1000-12) via amine coupling, respectively. Recombinant human sc-uPA was diluted in HBS-N (GE Healthcare Cat BR-1006-70) with 1% BSA buffer with a dilution factor 3× ranging 1000-0.13 nM. Recombinant human sc-uPA was injected for 60 s, followed by a 600 s dissociation phase. Binding curves were measured at 25° C. with a flow rate of 30 μL/min. Regeneration of the chip surface was performed with pH1.5 Glycine for 25 s at 30 μl/min. Determination of the kinetic parameters was performed by fitting with a 1:1 binding model. Binding affinities were calculated and are stated in Table 17 below.

Binder	Kd
rec0266-0000-0010-VH_D95A (antibody, mouse IgG1, V domains shown) VH: DVKLVESGGGLVKPGGSLKLSCVASGFTFSSYTMSWVRQTPEKRLEWVATISGGGSHIYYADSVKGRFTISRDNAKNTLYLQMSSLKSEDTAIYYCTRAGRDGSWFAYWGQGTLVTVSA VL: DIVMTQSPATLSVTPGDRVSLSCRTSQSIGDYLHWYQQKSHESPRLLIKYVSQSISGIPSRFSGSGSGSDFTLSINSVESEDVGVYYCQNSHSFPLTFGSGTKLELKR	2.6 nM
rec0266-0000-0010-VH_D98I (antibody, mouse IgG1, V domains shown) VH: DVKLVESGGGLVKPGGSLKLSCVASGFTFSSYTMSWVRQTPEKRLEWVATISGGGSHIYYADSVKGRFTISRDNAKNTLYLQMSSLKSEDTAIYYCTRDGRIGSWFAYWGQGTLVTVSA VL: DIVMTQSPATLSVTPGDRVSLSCRTSQSIGDYLHWYQQKSHESPRLLIKYVSQSISGIPSRFSGSGSGSDFTLSINSVESEDVGVYYCQNSHSFPLTFGSGTKLELKR	2 nM
rec0266-0000-0010-VH_D98E (antibody, mouse IgG1, V domains shown) VH: DVKLVESGGGLVKPGGSLKLSCVASGFTFSSYTMSWVRQTPEKRLEWVATISGGGSHIYYADSVKGRFTISRDNAKNTLYLQMSSLKSEDTAIYYCTRDGREGSWFAYWGQGTLVTVSA VL: DIVMTQSPATLSVTPGDRVSLSCRTSQSIGDYLHWYQQKSHESPRLLIKYVSQSISGIPSRFSGSGSGSDFTLSINSVESEDVGVYYCQNSHSFPLTFGSGTKLELKR	4.9 nM
rec0266-0000-0010-VH_D95G (antibody, mouse IgG1, V domains shown) VH: DVKLVESGGGLVKPGGSLKLSCVASGFTFSSYTMSWVRQTPEKRLEWVATISGGGSHIYYADSVKGRFTISRDNAKNTLYLQMSSLKSEDTAIYYCTRGGRDGSWFAYWGQGTLVTVSA VL: DIVMTQSPATLSVTPGDRVSLSCRTSQSIGDYLHWYQQKSHESPRLLIKYVSQSISGIPSRFSGSGSGSDFTLSINSVESEDVGVYYCQNSHSFPLTFGSGTKLELKR	12 nM
rec0266-0000-0010-VH_D95K (antibody, mouse IgG1, V domains shown) VH: DVKLVESGGGLVKPGGSLKLSCVASGFTFSSYTMSWVRQTPEKRLEWVATISGGGSHIYYADSVKGRFTISRDNAKNTLYLQMSSLKSEDTAIYYCTRKGRDGSWFAYWGQGTLVTVSA VL: DIVMTQSPATLSVTPGDRVSLSCRTSQSIGDYLHWYQQKSHESPRLLIKYVSQSISGIPSRFSGSGSGSDFTLSINSVESEDVGVYYCQNSHSFPLTFGSGTKLELKR	12 nM
rec0266-0000-0010-VH_D98F (antibody, mouse IgG1, V domains shown) VH: DVKLVESGGGLVKPGGSLKLSCVASGFTFSSYTMSWVRQTPEKRLEWVATISGGGSHIYYADSVKGRFTISRDNAKNTLYLQMSSLKSEDTAIYYCTRDGRFGSWFAYWGQGTLVTVSA VL: DIVMTQSPATLSVTPGDRVSLSCRTSQSIGDYLHWYQQKSHESPRLLIKYVSQSISGIPSRFSGSGSGSDFTLSINSVESEDVGVYYCQNSHSFPLTFGSGTKLELKR	1.5 nM
rec0266-0000-0010-VH_D95R (antibody, mouse IgG1, V domains shown) VH: DVKLVESGGGLVKPGGSLKLSCVASGFTFSSYTMSWVRQTPEKRLEWVATISGGGSHIYYADSVKGRFTISRDNAKNTLYLQMSSLKSEDTAIYYCTRRGRDGSWFAYWGQGTLVTVSA VL: DIVMTQSPATLSVTPGDRVSLSCRTSQSIGDYLHWYQQKSHESPRLLIKYVSQSISGIPSRFSGSGSGSDFTLSINSVESEDVGVYYCQNSHSFPLTFGSGTKLELKR	1.3 nM
rec0266-0000-0010-VH_D95L (antibody, mouse IgG1, V domains shown) VH: DVKLVESGGGLVKPGGSLKLSCVASGFTFSSYTMSWVRQTPEKRLEWVATISGGGSHIYYADSVKGRFTISRDNAKNTLYLQMSSLKSEDTAIYYCTRLGRDGSWFAYWGQGTLVTVSA VL: DIVMTQSPATLSVTPGDRVSLSCRTSQSIGDYLHWYQQKSHESPRLLIKYVSQSISGIPSRFSGSGSGSDFTLSINSVESEDVGVYYCQNSHSFPLTFGSGTKLELKR	4.7 nM
rec0266-0000-0010-VH_D98H (antibody, mouse IgG1, V domains shown) VH: DVKLVESGGGLVKPGGSLKLSCVASGFTFSSYTMSWVRQTPEKRLEWVATISGGGSHIYYADSVKGRFTISRDNAKNTLYLQMSSLKSEDTAIYYCTRDGRHGSWFAYWGQGTLVTVSA VL: DIVMTQSPATLSVTPGDRVSLSCRTSQSIGDYLHWYQQKSHESPRLLIKYVSQSISGIPSRFSGSGSGSDFTLSINSVESEDVGVYYCQNSHSFPLTFGSGTKLELKR	1.7 nM
rec0266-0000-0010-VH_D95T (antibody, mouse IgG1, V domains shown) VH: DVKLVESGGGLVKPGGSLKLSCVASGFTFSSYTMSWVRQTPEKRLEWVATISGGGSHIYYADSVKGRFTISRDNAKNTLYLQMSSLKSEDTAIYYCTRTGRDGSWFAYWGQGTLVTVSA VL: DIVMTQSPATLSVTPGDRVSLSCRTSQSIGDYLHWYQQKSHESPRLLIKYVSQSISGIPSRFSGSGSGSDFTLSINSVESEDVGVYYCQNSHSFPLTFGSGTKLELKR	1.5 nM

Now from value to binder:

Kd	Binder
0.95 nM	rec0266-0000-0010-VH_D98A (antibody, mouse IgG1, V domains shown) VH: DVKLVESGGGLVKPGGSLKLSCVASGFTFSSYTMSWVRQTPEKRLEWVATISGGGSHIYYADSVKGRFTISRDNAKNTLYLQMSSLKSEDTAIYYCTRDGRAGSWFAYWGQGTLVTVSA VL: DIVMTQSPATLSVTPGDRVSLSCRTSQSIGDYLHWYQQKSHESPRLLIKYVSQSISGIPSRFSGSGSGSDFTLSINSVESEDVGVYYCQNSHSFPLTFGSGTKLELKR
0.8 nM	rec0266-0000-0010-VH_D95V (antibody, mouse IgG1, V domains shown) VH: DVKLVESGGGLVKPGGSLKLSCVASGFTFSSYTMSWVRQTPEKRLEWVATISGGGSHIYYADSVKGRFTISRDNAKNTLYLQMSSLKSEDTAIYYCTRVGRDGSWFAYWGQGTLVTVSA VL: DIVMTQSPATLSVTPGDRVSLSCRTSQSIGDYLHWYQQKSHESPRLLIKYVSQSISGIPSRFSGSGSGSDFTLSINSVESEDVGVYYCQNSHSFPLTFGSGTKLELKR
1.4 nM	rec0266-0000-0010-VH_D95I (antibody, mouse IgG1, V domains shown) VH: DVKLVESGGGLVKPGGSLKLSCVASGFTFSSYTMSWVRQTPEKRLEWVATISGGGSHIYYADSVKGRFTISRDNAKNTLYLQMSSLKSEDTAIYYCTRIGRDGSWFAYWGQGTLVTVSA VL: DIVMTQSPATLSVTPGDRVSLSCRTSQSIGDYLHWYQQKSHESPRLLIKYVSQSISGIPSRFSGSGSGSDFTLSINSVESEDVGVYYCQNSHSFPLTFGSGTKLELKR
2.4 nM	rec0266-0000-0010-VH_D98G (antibody, mouse IgG1, V domains shown) VH: DVKLVESGGGLVKPGGSLKLSCVASGFTFSSYTMSWVRQTPEKRLEWVATISGGGSHIYYADSVKGRFTISRDNAKNTLYLQMSSLKSEDTAIYYCTRDGRGGSWFAYWGQGTLVTVSA VL: DIVMTQSPATLSVTPGDRVSLSCRTSQSIGDYLHWYQQKSHESPRLLIKYVSQSISGIPSRFSGSGSGSDFTLSINSVESEDVGVYYCQNSHSFPLTFGSGTKLELKR
2 nM	rec0266-0000-0010-VH_D95E (antibody, mouse IgG1, V domains shown) VH: DVKLVESGGGLVKPGGSLKLSCVASGFTFSSYTMSWVRQTPEKRLEWVATISGGGSHIYYADSVKGRFTISRDNAKNTLYLQMSSLKSEDTAIYYCTREGRDGSWFAYWGQGTLVTVSA VL: DIVMTQSPATLSVTPGDRVSLSCRTSQSIGDYLHWYQQKSHESPRLLIKYVSQSISGIPSRFSGSGSGSDFTLSINSVESEDVGVYYCQNSHSFPLTFGSGTKLELKR
2.7 nM	rec0266-0000-0010-VH_D95P (antibody, mouse IgG1, V domains shown) VH: DVKLVESGGGLVKPGGSLKLSCVASGFTFSSYTMSWVRQTPEKRLEWVATISGGGSHIYYADSVKGRFTISRDNAKNTLYLQMSSLKSEDTAIYYCTRPGRDGSWFAYWGQGTLVTVSA VL: DIVMTQSPATLSVTPGDRVSLSCRTSQSIGDYLHWYQQKSHESPRLLIKYVSQSISGIPSRFSGSGSGSDFTLSINSVESEDVGVYYCQNSHSFPLTFGSGTKLELKR
5 nM	rec0266-0000-0010-VH_D95Y (antibody, mouse IgG1, V domains shown) VH: DVKLVESGGGLVKPGGSLKLSCVASGFTFSSYTMSWVRQTPEKRLEWVATISGGGSHIYYADSVKGRFTISRDNAKNTLYLQMSSLKSEDTAIYYCTRYGRDGSWFAYWGQGTLVTVSA VL: DIVMTQSPATLSVTPGDRVSLSCRTSQSIGDYLHWYQQKSHESPRLLIKYVSQSISGIPSRFSGSGSGSDFTLSINSVESEDVGVYYCQNSHSFPLTFGSGTKLELKR
12 nM	rec0266-0000-0010-VH_D95F (antibody, mouse IgG1, V domains shown) VH: DVKLVESGGGLVKPGGSLKLSCVASGFTFSSYTMSWVRQTPEKRLEWVATISGGGSHIYYADSVKGRFTISRDNAKNTLYLQMSSLKSEDTAIYYCTRFGRDGSWFAYWGQGTLVTVSA VL: DIVMTQSPATLSVTPGDRVSLSCRTSQSIGDYLHWYQQKSHESPRLLIKYVSQSISGIPSRFSGSGSGSDFTLSINSVESEDVGVYYCQNSHSFPLTFGSGTKLELKR
4 nM	rec0266-0000-0010-VH_D95S (antibody, mouse IgG1, V domains shown) VH: DVKLVESGGGLVKPGGSLKLSCVASGFTFSSYTMSWVRQTPEKRLEWVATISGGGSHIYYADSVKGRFTISRDNAKNTLYLQMSSLKSEDTAIYYCTRSGRDGSWFAYWGQGTLVTVSA VL: DIVMTQSPATLSVTPGDRVSLSCRTSQSIGDYLHWYQQKSHESPRLLIKYVSQSISGIPSRFSGSGSGSDFTLSINSVESEDVGVYYCQNSHSFPLTFGSGTKLELKR
6.5 nM	rec0266-0000-0010-VH_D95H (antibody, mouse IgG1, V domains shown) VH: DVKLVESGGGLVKPGGSLKLSCVASGFTFSSYTMSWVRQTPEKRLEWVATISGGGSHIYYADSVKGRFTISRDNAKNTLYLQMSSLKSEDTAIYYCTRHGRDGSWFAYWGQGTLVTVSA VL: DIVMTQSPATLSVTPGDRVSLSCRTSQSIGDYLHWYQQKSHESPRLLIKYVSQSISGIPSRFSGSGSGSDFTLSINSVESEDVGVYYCQNSHSFPLTFGSGTKLELKR
